Test results reported in patent US20060105444.

What was measured:
[1] = target: human Factor IX EGF domain (wild type) (UniProt P00740)
[2] = target: human Factor IX EGF domain mutant EGF.AG (UniProt P00740)
[3] = target: human Factor IX EGF domain mutant EGF.GA (UniProt P00740)
[4] = target: human Factor IX EGF domain mutant EGF.AA (UniProt P00740)
Chain of human Factor IX EGF domain mutant EGF.AA (P00740 other isoform, or with tags, fused parts or gaps mutant): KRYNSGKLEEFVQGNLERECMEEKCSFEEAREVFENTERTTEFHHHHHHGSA

Chain of human Factor IX EGF domain (wild type) (P00740 other isoform, or with tags, fused parts or gaps): as the sequence (P00740 other isoform, or with tags, fused parts or gaps mutant) above
Chain of human Factor IX EGF domain mutant EGF.GA (P00740 other isoform, or with tags, fused parts or gaps mutant): as above
Chain of human Factor IX EGF domain mutant EGF.AG (P00740 other isoform, or with tags, fused parts or gaps mutant): as above

Substance: O-fucosyltransferase purified from CHO cells
- Fucose (cpm) [1]: 12100 cpm
- Fucose (cpm) [2]: 4580 cpm
- Fucose (cpm) [3]: 6480 cpm
- Fucose (cpm) [4]: 1820 cpm
- RP-HPLC with electrospray mass spectrometry of the fucosylation product [4]: only one of the four differently folded species served as an acceptor substrate for the O-fucosyltransferase
